Data published in patent US20140087995A1 (published 2014).
Numbered stars: 1 amine (or outer) side, 2 acyl side, 3 side chain; on linkers, the order of the positions; unused ones are H or OH. Bridge positions count the residues as written; N and C are the ends. Side chains are listed from the residue outwards. Ends that are not written are not given here. * marks the point of attachment. C20 diacid = O=C(O)CCCCCCCCCCCCCCCCCCC(=O)*; γGlu = O=C(O)[C@H](CCC(=O)[*:2])N[*:1]; AEEA = NCCOCCOCC(=O)O

T1: rat amylin receptor (rat calcitonin receptor + rat RAMP 3) (rat, UniProt P32214 25-516; Q9JJ73 23-147)
T1 construct: whole, on cells; Used as membranes prepared from BHK tk'ts 13 cells transiently transfected with rat calcitonin receptor and rat RAMP 3 (Assay VI); also called rAmylin-R; rat amylin 3(a) receptor
T1 sequence (looked up) 1: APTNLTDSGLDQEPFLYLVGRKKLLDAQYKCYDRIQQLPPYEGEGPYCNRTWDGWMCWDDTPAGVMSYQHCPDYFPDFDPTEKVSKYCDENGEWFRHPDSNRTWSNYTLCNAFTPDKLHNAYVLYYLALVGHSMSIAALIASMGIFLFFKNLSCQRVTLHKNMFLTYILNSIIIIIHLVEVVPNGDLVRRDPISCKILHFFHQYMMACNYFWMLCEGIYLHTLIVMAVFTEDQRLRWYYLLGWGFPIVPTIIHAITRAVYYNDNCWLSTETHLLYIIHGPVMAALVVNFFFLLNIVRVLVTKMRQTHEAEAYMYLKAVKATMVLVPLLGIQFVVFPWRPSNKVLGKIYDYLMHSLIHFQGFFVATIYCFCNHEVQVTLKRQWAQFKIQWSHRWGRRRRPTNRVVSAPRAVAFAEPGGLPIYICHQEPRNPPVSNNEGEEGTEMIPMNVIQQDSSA
T1 sequence (looked up) 2: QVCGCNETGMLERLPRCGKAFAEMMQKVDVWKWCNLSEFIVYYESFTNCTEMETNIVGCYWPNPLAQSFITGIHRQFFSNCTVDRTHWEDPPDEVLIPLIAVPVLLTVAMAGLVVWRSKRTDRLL

T2: human calcitonin receptor (human, UniProt P30988 25-474)
T2 construct: whole, on cells; Used as membranes prepared from a BHK tk'ts 13 cell line stably transfected with the human calcitonin receptor (Assay VII); also called hCTR; hCT
T2 sequence (looked up): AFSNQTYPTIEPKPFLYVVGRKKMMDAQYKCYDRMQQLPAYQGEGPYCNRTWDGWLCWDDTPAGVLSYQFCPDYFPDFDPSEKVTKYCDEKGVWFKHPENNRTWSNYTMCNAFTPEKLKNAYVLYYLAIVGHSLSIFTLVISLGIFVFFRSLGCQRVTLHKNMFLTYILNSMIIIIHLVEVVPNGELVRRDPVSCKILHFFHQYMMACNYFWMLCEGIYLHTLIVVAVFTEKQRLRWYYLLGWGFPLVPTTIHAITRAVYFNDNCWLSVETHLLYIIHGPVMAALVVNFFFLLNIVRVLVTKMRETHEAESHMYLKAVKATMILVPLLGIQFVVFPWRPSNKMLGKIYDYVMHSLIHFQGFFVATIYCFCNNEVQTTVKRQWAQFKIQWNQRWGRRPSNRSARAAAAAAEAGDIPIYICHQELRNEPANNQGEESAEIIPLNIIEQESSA

T3: rat calcitonin receptor (rat, UniProt P32214 25-516)
T3 construct: whole, on cells; Used as membranes prepared from BHK tk'ts 13 cells transiently transfected with the rat calcitonin receptor (Assay VIII); also called rCTR; rat calcitonin (a) receptor
T3 sequence (looked up): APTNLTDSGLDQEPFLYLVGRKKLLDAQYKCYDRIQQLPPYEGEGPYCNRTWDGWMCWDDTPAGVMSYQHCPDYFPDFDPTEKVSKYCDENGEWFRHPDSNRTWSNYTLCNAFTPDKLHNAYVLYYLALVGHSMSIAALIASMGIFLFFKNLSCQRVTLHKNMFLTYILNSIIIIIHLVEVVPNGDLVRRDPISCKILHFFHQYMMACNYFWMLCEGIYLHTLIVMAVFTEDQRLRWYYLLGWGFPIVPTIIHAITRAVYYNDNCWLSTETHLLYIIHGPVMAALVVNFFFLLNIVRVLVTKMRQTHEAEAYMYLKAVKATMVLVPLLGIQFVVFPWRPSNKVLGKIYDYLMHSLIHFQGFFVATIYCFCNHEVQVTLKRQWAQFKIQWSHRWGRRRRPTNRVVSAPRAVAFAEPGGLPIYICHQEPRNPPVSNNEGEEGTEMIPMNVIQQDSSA


What was measured:
[1] = molecular target: T1, rat amylin receptor (rat calcitonin …); assay: SPA competition with 125I-rat amylin, membranes of BHK cells with rat CTR + rat RAMP3 (Assay VI)
[2] = molecular target: T2, human calcitonin receptor; assay: IC50 on human CTR divided by IC50 on human amylin receptor (Assays VII/V)
Summary of the method: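 IC₅₀ values were derived by one-site competition analysis of SPA counts. Cell membranes (35 ng/μL) with SPA beads were incubated with test compounds for 120 min at 25° C in Hepes buffer, pH 7.4, containing CaCl2, MgCl₂, OA and Tween20.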

[3] = molecular target: T3, rat calcitonin receptor; assay: IC50 on rat CTR divided by IC50 on rat amylin receptor (Assays VIII/VI)
[4] = molecular target: T3, rat calcitonin receptor; assay: SPA competition with 125I-calcitonin, membranes of BHK cells with rat CTR (Assay VIII)

Row | IC50 [1] | Ratio hCT/hAmylin binding [2] | Ratio rCT/rAmylin binding [3] | IC50 [4] | Binder
1 | 3.48 nM | 157 | 35.6 | 124 nM | K([γGlu-C20 diacid])CNTATCATQRLARFLRHSSPNFGAIPSSTPVGSNTY-NH2 (disulfide 2-7; N-terminus assumed; SMILES CC[C@H](C)[C@H](NC(=O)[C@H](C)NC(=O)CNC(=O)[C@H](Cc1ccccc1)NC(=O)[C@H](CC(N)=O)NC(=O)[C@@H]1CCCN1C(=O)[C@H](CO)NC(=O)[C@H](CO)NC(=O)[C@H](Cc1c[nH]cn1)NC(=O)[C@H](CCCNC(=N)N)NC(=O)[C@H](CC(C)C)NC(=O)[C@H](Cc1ccccc1)NC(=O)[C@H](CCCNC(=N)N)NC(=O)[C@H](C)NC(=O)[C@H](CC(C)C)NC(=O)[C@H](CCCNC(=N)N)NC(=O)[C@H](CCC(N)=O)NC(=O)[C@@H](NC(=O)[C@H](C)NC(=O)[C@@H]1CSSC[C@H](NC(=O)[C@@H](N)CCCCNC(=O)CC[C@H](NC(=O)CCCCCCCCCCCCCCCCCCC(=O)O)C(=O)O)C(=O)N[C@@H](CC(N)=O)C(=O)N[C@@H]([C@@H](C)O)C(=O)N[C@@H](C)C(=O)N[C@@H]([C@@H](C)O)C(=O)N1)[C@@H](C)O)C(=O)N1CCC[C@H]1C(=O)N[C@@H](CO)C(=O)N[C@@H](CO)C(=O)N[C@H](C(=O)N1CCC[C@H]1C(=O)N[C@H](C(=O)NCC(=O)N[C@@H](CO)C(=O)N[C@@H](CC(N)=O)C(=O)N[C@H](C(=O)N[C@@H](Cc1ccc(O)cc1)C(N)=O)[C@@H](C)O)C(C)C)[C@@H](C)O, Analogue of human amylin; also called compound 63)
2 | 1.65 nM | 46.1 | 21.5 | 35.5 nM | K([γGlu-C20 diacid])CNTATCATQRLANFLRHSSPNFGAIPSSTNVGRNTY-NH2 (disulfide 2-7; N-terminus assumed; SMILES CC[C@H](C)[C@H](NC(=O)[C@H](C)NC(=O)CNC(=O)[C@H](Cc1ccccc1)NC(=O)[C@H](CC(N)=O)NC(=O)[C@@H]1CCCN1C(=O)[C@H](CO)NC(=O)[C@H](CO)NC(=O)[C@H](Cc1c[nH]cn1)NC(=O)[C@H](CCCNC(=N)N)NC(=O)[C@H](CC(C)C)NC(=O)[C@H](Cc1ccccc1)NC(=O)[C@H](CC(N)=O)NC(=O)[C@H](C)NC(=O)[C@H](CC(C)C)NC(=O)[C@H](CCCNC(=N)N)NC(=O)[C@H](CCC(N)=O)NC(=O)[C@@H](NC(=O)[C@H](C)NC(=O)[C@@H]1CSSC[C@H](NC(=O)[C@@H](N)CCCCNC(=O)CC[C@H](NC(=O)CCCCCCCCCCCCCCCCCCC(=O)O)C(=O)O)C(=O)N[C@@H](CC(N)=O)C(=O)N[C@@H]([C@@H](C)O)C(=O)N[C@@H](C)C(=O)N[C@@H]([C@@H](C)O)C(=O)N1)[C@@H](C)O)C(=O)N1CCC[C@H]1C(=O)N[C@@H](CO)C(=O)N[C@@H](CO)C(=O)N[C@H](C(=O)N[C@@H](CC(N)=O)C(=O)N[C@H](C(=O)NCC(=O)N[C@@H](CCCNC(=N)N)C(=O)N[C@@H](CC(N)=O)C(=O)N[C@H](C(=O)N[C@@H](Cc1ccc(O)cc1)C(N)=O)[C@@H](C)O)C(C)C)[C@@H](C)O, Analogue of human amylin; also called compound 79) [N^ε1-[(4S)-4-carboxy-4-(19-carboxynonadecanoylamino)butanoyl]-[Arg17,Pro21,Pro27,Arg34]-h-amylin]

More lines, now with the values behind:

Row | Binder | IC50 [1] | Ratio hCT/hAmylin binding [2] | Ratio rCT/rAmylin binding [3] | IC50 [4]
3 | K([AEEA-γGlu-C20 diacid])CNTATCATQRLATFLRHSSPNFGAIPSSTPVGSNTY-NH2 (disulfide 2-7; N-terminus assumed; SMILES CC[C@H](C)[C@H](NC(=O)[C@H](C)NC(=O)CNC(=O)[C@H](Cc1ccccc1)NC(=O)[C@H](CC(N)=O)NC(=O)[C@@H]1CCCN1C(=O)[C@H](CO)NC(=O)[C@H](CO)NC(=O)[C@H](Cc1c[nH]cn1)NC(=O)[C@H](CCCNC(=N)N)NC(=O)[C@H](CC(C)C)NC(=O)[C@H](Cc1ccccc1)NC(=O)[C@@H](NC(=O)[C@H](C)NC(=O)[C@H](CC(C)C)NC(=O)[C@H](CCCNC(=N)N)NC(=O)[C@H](CCC(N)=O)NC(=O)[C@@H](NC(=O)[C@H](C)NC(=O)[C@@H]1CSSC[C@H](NC(=O)[C@@H](N)CCCCNC(=O)COCCOCCNC(=O)CC[C@H](NC(=O)CCCCCCCCCCCCCCCCCCC(=O)O)C(=O)O)C(=O)N[C@@H](CC(N)=O)C(=O)N[C@@H]([C@@H](C)O)C(=O)N[C@@H](C)C(=O)N[C@@H]([C@@H](C)O)C(=O)N1)[C@@H](C)O)[C@@H](C)O)C(=O)N1CCC[C@H]1C(=O)N[C@@H](CO)C(=O)N[C@@H](CO)C(=O)N[C@H](C(=O)N1CCC[C@H]1C(=O)N[C@H](C(=O)NCC(=O)N[C@@H](CO)C(=O)N[C@@H](CC(N)=O)C(=O)N[C@H](C(=O)N[C@@H](Cc1ccc(O)cc1)C(N)=O)[C@@H](C)O)C(C)C)[C@@H](C)O, Analogue of human amylin; also called compound 75) | 4.03 nM | 91.4 | 110 | 442 nM
4 | K([γGlu-C20 diacid])CNTATCATQRLANFLRHSSPNFGAIPSSTNVGHNTY-NH2 (disulfide 2-7; N-terminus assumed; SMILES CC[C@H](C)[C@H](NC(=O)[C@H](C)NC(=O)CNC(=O)[C@H](Cc1ccccc1)NC(=O)[C@H](CC(N)=O)NC(=O)[C@@H]1CCCN1C(=O)[C@H](CO)NC(=O)[C@H](CO)NC(=O)[C@H](Cc1c[nH]cn1)NC(=O)[C@H](CCCNC(=N)N)NC(=O)[C@H](CC(C)C)NC(=O)[C@H](Cc1ccccc1)NC(=O)[C@H](CC(N)=O)NC(=O)[C@H](C)NC(=O)[C@H](CC(C)C)NC(=O)[C@H](CCCNC(=N)N)NC(=O)[C@H](CCC(N)=O)NC(=O)[C@@H](NC(=O)[C@H](C)NC(=O)[C@@H]1CSSC[C@H](NC(=O)[C@@H](N)CCCCNC(=O)CC[C@H](NC(=O)CCCCCCCCCCCCCCCCCCC(=O)O)C(=O)O)C(=O)N[C@@H](CC(N)=O)C(=O)N[C@@H]([C@@H](C)O)C(=O)N[C@@H](C)C(=O)N[C@@H]([C@@H](C)O)C(=O)N1)[C@@H](C)O)C(=O)N1CCC[C@H]1C(=O)N[C@@H](CO)C(=O)N[C@@H](CO)C(=O)N[C@H](C(=O)N[C@@H](CC(N)=O)C(=O)N[C@H](C(=O)NCC(=O)N[C@@H](Cc1c[nH]cn1)C(=O)N[C@@H](CC(N)=O)C(=O)N[C@H](C(=O)N[C@@H](Cc1ccc(O)cc1)C(N)=O)[C@@H](C)O)C(C)C)[C@@H](C)O, Analogue of human amylin; also called compound 77) [N^ε1-[(4S)-4-carboxy-4-(19-carboxynonadecanoylamino)butanoyl]-[Arg17,Pro21,Pro27,His34]-h-amylin] | 1.5 nM | 118 | 137 | 205 nM
5 | K([γGlu-C20 diacid])CNTATCATQRLARFLRHSSPNFGAIPSSTNVGPNTY-NH2 (disulfide 2-7; N-terminus assumed; SMILES CC[C@H](C)[C@H](NC(=O)[C@H](C)NC(=O)CNC(=O)[C@H](Cc1ccccc1)NC(=O)[C@H](CC(N)=O)NC(=O)[C@@H]1CCCN1C(=O)[C@H](CO)NC(=O)[C@H](CO)NC(=O)[C@H](Cc1c[nH]cn1)NC(=O)[C@H](CCCNC(=N)N)NC(=O)[C@H](CC(C)C)NC(=O)[C@H](Cc1ccccc1)NC(=O)[C@H](CCCNC(=N)N)NC(=O)[C@H](C)NC(=O)[C@H](CC(C)C)NC(=O)[C@H](CCCNC(=N)N)NC(=O)[C@H](CCC(N)=O)NC(=O)[C@@H](NC(=O)[C@H](C)NC(=O)[C@@H]1CSSC[C@H](NC(=O)[C@@H](N)CCCCNC(=O)CC[C@H](NC(=O)CCCCCCCCCCCCCCCCCCC(=O)O)C(=O)O)C(=O)N[C@@H](CC(N)=O)C(=O)N[C@@H]([C@@H](C)O)C(=O)N[C@@H](C)C(=O)N[C@@H]([C@@H](C)O)C(=O)N1)[C@@H](C)O)C(=O)N1CCC[C@H]1C(=O)N[C@@H](CO)C(=O)N[C@@H](CO)C(=O)N[C@H](C(=O)N[C@@H](CC(N)=O)C(=O)N[C@H](C(=O)NCC(=O)N1CCC[C@H]1C(=O)N[C@@H](CC(N)=O)C(=O)N[C@H](C(=O)N[C@@H](Cc1ccc(O)cc1)C(N)=O)[C@@H](C)O)C(C)C)[C@@H](C)O, Analogue of human amylin; also called compound 65) | 1.16 nM | 82.4 | 93.2 | 108 nM
